In the supplement of paper PMC12764529:
± gives the half width of the 95% confidence interval.

How the values were obtained:
[1] = folding stability dG unfold from chymotrypsin proteolysis; higher = more stable
Method: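 Folding stability of de novo designed mini-proteins (<80 aa, no Cys; designed by TrROS, TrMRF, ProteinMPNN and the joint model) was measured by cDNA display proteolysis with trypsin and chymotrypsin. Each protease was used at 11 concentrations in a threefold dilution series plus a no-protease condition. K50 was inferred by Bayesian fitting of sequencing counts, and dG unfold was derived against a sequence-predicted unfolded-state K50 (Tsuboyama et al. method). Sequences shown include variable-length N-terminal GS-type padding (SAGGSAGG...) inside a display construct carrying a PA tag. Rows were kept only if the AF2 dimer inter-PAE was >15, to exclude likely homo-oligomers.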

[2] = folding stability dG unfold (combined trypsin and chymotrypsin); higher = more stable
Method in brief: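 Designed mini-proteins with no cysteine and under 80 residues were kept only if AlphaFold2 dimer inter-PAE was above 15. In a PA-tagged cDNA display construct, they were digested with trypsin and chymotrypsin and then sequenced. K50 was inferred by Bayesian fitting of counts, and unfolding free energy was derived per protease or combined against a sequence-predicted unfolded-state K50 and a shared folded-state K50.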

| Sequence | folding stability dG unfold [1] [kcal/mol] | folding stability dG unfold [2] [kcal/mol] |
| --- | --- | --- |
| SAGGSAGGSAGGMTETKVYPKSSEGGKLTTITTTTTPLKDPKGNWSTKTTTTTSVSPATSAGGSAGGSAGGS [r10_496_JUSTAS] | 0.131 ± 0.15 | -0.486 ± 0.27 |
| SAGGSAGGSAGGMTITKSPEPDLVTVTLPDASGTTVATLTFSPEVVESDPALVAAAAAATSAGGSAGGSAGG [r17_496_JUSTAS] | 0.516 ± 0.095 | -0.335 ± 0.39 |
| SAGGSAGGSAGGMTRTITVKSPGDAEAVVEELKPLGWEVKEIKKDTANPNVYTVTVEKPSAGGSAGGSAGGS [r10_104_JUSTAS] | 0.752 ± 0.15 | 0.198 ± 0.25 |
| SAGGSAGGSAGGMVPGETVTITIPVPPTGKEVPVEISTTLPPEEREALAEAKAAELEAALSAGGSAGGSAGG [r7_957_JUSTAS] | 0.602 ± 0.025 | -0.199 ± 0.11 |
| SAGGSAGGSAGGNKKKIELHFFFDPGQPAEEAKDFIRGAALENGDTITDVDIHWVPPEDFSAGGSAGGSAGG [r7_703_TrROS] | 0.201 ± 0.11 | -0.384 ± 0.3 |
| SAGGSAGGSAGGPALAEELARKLPPGARVRVRVERDADGNLTITVEVEPAPPVEVVEEESAGGSAGGSAGGS [r10_385_TrROS_Hall] | 0.366 ± 0.044 | -0.06 ± 0.23 |
| SAGGSAGGSAGGPKVTVFDDHPKKVVLVEFPDKPILAVYDPVTKEVVLLNPDTDELLPLSAGGSAGGSAGGS [r10_434_TrMRF] | -0.551 ± 0.22 | -0.889 ± 0.47 |
| SAGGSAGGSAGGPLLALFDPVPGRVVVVGLRPLPEDSYELDPYVLELDPTTGEAKVRKASAGGSAGGSAGGS [r10_1041_TrMRF] | -0.547 ± 0.42 | -0.852 ± 0.59 |
| SAGGSAGGSAGGPVVTETPTTSVVYDPAKGTVTYVTPTVVTFPDGTTTTTVASTTVPLPASAGGSAGGSAGG [r11_308_JUSTAS] | 0.531 ± 0.15 | 0.0838 ± 0.2 |
| SAGGSAGGSAGGPWKIKEIETVPEGGKERMTIKIEDDNGKPKKPVHMPPDDLDNLPPDLISAGGSAGGSAGG [r7_263_TrROS] | -0.605 ± 0.24 | < -1 |
| SAGGSAGGSAGGRTYRLTLTRPDGRPLTFEVPTDTAPEHVELLKSLFPDEEIEADISDVESAGGSAGGSAGG [r7_349_TrMRF] | 0.491 ± 0.22 | -0.652 ± 0.46 |
| SAGGSAGGSAGGSAAEFVAAHPDVEARPVEEGPGSVLVALRPPGGPELLVRVEGAAVTLESAGGSAGGSAGG [r7_26_JUSTAS] | -0.459 ± 0.34 | < -1 |
| SAGGSAGGSAGGSAPYALVEVLPGGVVVVAYPDGSRRLVEVERDPSSDLWRVLREEDLPSAGGSAGGSAGGS [r4_247_JUSTAS] | 0.688 ± 0.1 | 0.278 ± 0.068 |
| SAGGSAGGSAGGSEEKPLVIPIPAHPDIPAEVVRKAVEPLTGVPIEAVLGDEDTLLVVGSAGGSAGGSAGGS [r4_469_TrMRF] | 0.661 ± 0.022 | 0.187 ± 0.077 |
| SAGGSAGGSAGGSFTLTTPGRTETVPAGSEVYFGNGIKLHPDLPLADIPPELLTPIGTRPSAGGSAGGSAGG [r17_511_TrMRF] | 0.48 ± 0.27 | -0.229 ± 0.24 |
| SAGGSAGGSAGGSGGVTVSQYEGGKATRTVTSFDPVNNSTSTTTTTTFTIPPDEPVTVSSAGGSAGGSAGGS [r10_1153_JUSTAS] | 0.236 ± 0.2 | -0.371 ± 0.29 |
| SAGGSAGGSAGGSGPEELAAAARAAHPELGAPVRVEVTYTPEAGEFPVRVFLPEDGAALSAGGSAGGSAGGS [r4_312_JUSTAS] | -0.335 ± 0.14 | < -1 |
| SAGGSAGGSAGGSGRVEIELEFKLENGFYVRIKAEIEFEEDGKIRIKVEIELLPEELEESAGGSAGGSAGGS [r4_297_TrROS_Hall] | 3.67 ± 0.34 | 3.89 ± 0.41 |
| SAGGSAGGSAGGSHIQFDPEGRWKIRNRDNNNTREFPADDLPKLPPDFDIPKGARIEPYSAGGSAGGSAGGS [r4_91_TrROS] | -0.134 ± 0.25 | -0.518 ± 0.19 |
| SAGGSAGGSAGGSHPVKITEITEFNPGDNRMRIDIKHPNGGKKEIVVPGMPVEEILNAISAGGSAGGSAGGS [r4_357_TrROS] | 0.0992 ± 0.031 | -0.635 ± 0.21 |
